Our source for the apparent cooperativity factor αapp (IC50[binary]/IC50[ternary]) values is patent publication US20200190136A1, “METHODS FOR GENERATING SMALL MOLECULE DEGRADERS AND DIMERIZERS” (DANA-FARBER CANCER INSTITUTE, INC., priority 2017, published 2020).

The target of experiment [1] is His6-DDB1ΔB-His6-CRBN complex (human) (UniProt Q16531). Briefly: FP lenalidomide-Atto565 displacement from DDB1ΔB-CRBN, dBET57, with and without BRD4BD2.
For experiment [2] the target is unchanged. Briefly: FP lenalidomide-Atto565 displacement from DDB1ΔB-CRBN, dBET6, with and without BRD4BD2.
The target is the same in experiment [3]. Briefly: FP lenalidomide-Atto565 displacement from DDB1ΔB-CRBN, dBET23, with and without BRD4BD2.

His6-DDB1ΔB-His6-CRBN complex (human), sequence (Q16531 other isoform, or with tags, fused parts or gaps mutant, chain 1 of 2): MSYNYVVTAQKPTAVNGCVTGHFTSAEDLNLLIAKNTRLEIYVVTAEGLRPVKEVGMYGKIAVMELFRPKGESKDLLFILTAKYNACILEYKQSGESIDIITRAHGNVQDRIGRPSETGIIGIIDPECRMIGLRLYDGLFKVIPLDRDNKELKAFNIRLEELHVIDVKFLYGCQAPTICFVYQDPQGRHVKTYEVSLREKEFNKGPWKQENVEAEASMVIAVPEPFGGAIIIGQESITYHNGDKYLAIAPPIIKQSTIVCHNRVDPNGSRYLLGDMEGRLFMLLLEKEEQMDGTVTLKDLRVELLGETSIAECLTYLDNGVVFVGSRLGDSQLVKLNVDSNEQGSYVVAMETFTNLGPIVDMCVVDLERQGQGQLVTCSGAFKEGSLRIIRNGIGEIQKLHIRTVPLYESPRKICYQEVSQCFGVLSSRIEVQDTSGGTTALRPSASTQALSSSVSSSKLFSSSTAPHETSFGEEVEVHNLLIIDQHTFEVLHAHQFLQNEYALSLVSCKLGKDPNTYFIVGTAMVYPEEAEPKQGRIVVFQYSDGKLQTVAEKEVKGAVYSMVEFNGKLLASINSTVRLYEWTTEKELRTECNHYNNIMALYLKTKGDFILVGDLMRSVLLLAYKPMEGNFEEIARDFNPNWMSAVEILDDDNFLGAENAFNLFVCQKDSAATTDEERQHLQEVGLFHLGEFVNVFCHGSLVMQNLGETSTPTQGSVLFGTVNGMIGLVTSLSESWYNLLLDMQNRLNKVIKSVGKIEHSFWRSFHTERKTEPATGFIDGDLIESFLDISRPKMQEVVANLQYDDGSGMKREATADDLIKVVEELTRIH
His6-DDB1ΔB-His6-CRBN complex (human), sequence (Q96SW2 whole entry, stated change not applied, chain 2 of 2, further chain): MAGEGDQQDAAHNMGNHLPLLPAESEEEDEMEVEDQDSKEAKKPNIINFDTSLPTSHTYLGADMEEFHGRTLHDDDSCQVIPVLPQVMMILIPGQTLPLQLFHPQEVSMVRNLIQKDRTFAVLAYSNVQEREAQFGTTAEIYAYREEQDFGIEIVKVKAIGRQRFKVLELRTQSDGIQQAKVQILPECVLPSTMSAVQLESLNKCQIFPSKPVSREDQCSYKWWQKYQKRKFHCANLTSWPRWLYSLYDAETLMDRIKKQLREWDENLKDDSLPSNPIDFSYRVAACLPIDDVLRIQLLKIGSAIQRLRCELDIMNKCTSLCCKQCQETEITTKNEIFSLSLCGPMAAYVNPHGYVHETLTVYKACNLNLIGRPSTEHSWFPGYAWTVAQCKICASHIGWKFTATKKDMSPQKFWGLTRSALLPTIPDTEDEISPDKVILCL

With “BRD4BD2 (second bromodomain of human BRD4) (from UniProt O60885 333-460)”, the apparent cooperativity factor αapp (IC50[binary]/IC50[ternary]) in experiment [1] is less than 0.1; in experiment [2], 0.2; in experiment [3] it was less than 0.1.
